Biological target: MBP-FhtR (Faecalis heme transport Regulator fused to the maltose binding protein) (Enterococcus faecalis OG1RF)
Test: SEC

Work on “MBP-FhtR (Faecalis heme transport Regulator fused to the maltose binding protein) (natural protein)” yielded a stoichiometry N of 2.

From article doi:10.1101/2020.06.22.166298
